B1: Twister Ribozyme (parent)
chain: AACACUGCCAAUGCCGGUCCCAAGCCCGGAUAAAAGUGGAGGGGGCGG

Variants of: B1
Assay: self-cleavage, relative activity (ratio to wild type); higher = more cleavage; co-transcriptional

| Variant | self-cleavage |
| --- | --- |
| AACACUGCCAUUGCCGGUCCCAAGCCCGGAUAAAAGCGGAGGGGGCGG | 0.583 |
| AACACUGCCAAUGCCAGUCCCAAGCCCGGAUAAACGUGGAGGGGGCGG | 0.927 |
| AAACCUGCCAAUGCCGGUCCCAAGCCCGGAUAAAAGUGGAGGGGGCGG | 0.0653 |
| AACACUGCCAAUGCCGGUCCCAAGCCCGGAUACAAGUGGAGGGGGGGG | 0.751 |
| AACACUGCCAAUGCCGGUCCCAAGCCCGGAAUAAAGUGGAGGGGGCGG | 1.05 |
| AACACUGCCAAUGCCGGUCCCAAACUCGGAUAAAAGUGGAGGGGGCGG | 0.077 |
| AACACUGCCAAUGCCGGUCCCAAGGCCGGAUAAAAGUGGAGCGGGCGG | 0.18 |
| AACACUGCCAAUGCCGGUCCCCAACCCGGAUAAAAGUGGAGGGGGCGG | 0.131 |
| AACACUGCCAAGGCCGGUCCCAAGCCCGGAUAAAAGUGGAGUGGGCGG | 0.531 |
| AACACUGCCAAUGCUGGUCCCAAUCCCGGAUAAAAGUGGAGGGGGCGG | 0.122 |
| AACACUGCCAAGGCCGGUCCCAAGCCCGGAUAAAAGUGGAGGCGGCGG | 0.274 |
| AACACUGCCAAAGCCGGUCCCAAGCCCGGAUAAAAGUGGAGCGGGCGG | 0.601 |
| AACACUGCCAAUGCCGGUCCCAAGCCCGGAUAAAAGUAGAGGCGGCGG | 0.148 |
| AAAACUGCCAAUGCCGGUCCCAAGCCCGGAUAAAAGUGUAGGGGGCGG | 0.0737 |
| AACACUGCCAAUGCUGGUCCCAAGCCCGGAUAAAAGUGGAGGGGGCAG | 0.84 |
| AACACUGCCAAUGCCGGUCCCAAGCGCGGAUAAAAGUGGAGGGUGCGG | 0.184 |
| AACACUGCCAACGCCGGUCCCAAGCCCGGAUAAAAAUGGAGGGGGCGG | 0.679 |
| AACACUGCCAAUGCCUGUCCCAAGCCCGGAUAAAAGAGGAGGGGGCGG | 0.436 |
| AACAGUGUCAAUGCCGGUCCCAAGCCCGGAUAAAAGUGGAGGGGGCGG | 0.294 |
| AACACUGCCAAUGCUGGUCCCAAGCCCGGAUAAAAGUGGGGGGGGCGG | 0.162 |
| AACACUGCCAUUGCCGGUCCCAAGCCCGGAUAAAAGUGGCGGGGGCGG | 0.161 |
| AACACUGCCAACGCCGGUCCCAAGCCCGGAUAAAAGUGGAGGGGGGGG | 0.705 |
| AACACUGCCAAUCCCGGUCCCAAGCCCGGAUAAAAGUGGAGUGGGCGG | 0.112 |
| AACACUGCCAAGGCCGGUCCCAAGCCCGGAGAAAAGUGGAGGGGGCGG | 0.834 |
| AACACUGCCAAUGCCGGUCCCAAGCACGGAUUAAAGUGGAGGGGGCGG | 0.405 |
| AACACUGACAAUGCCGGUCCCAAGCCCGGAUAAAAGUGGAGAGGGCGG | 0.141 |
| AACACUGCCAAUGCCGGUCCCAUGCCCGGAUAAAAGUGGAGGGGGGGG | 0.652 |

| Variant | self-cleavage |
| --- | --- |
| AACACUGCCAAUGCCGUUCCCAUGCCCGGAUAAAAGUGGAGGGGGCGG | 0.159 |
| AUCACUCCCAAUGCCGGUCCCAAGCCCGGAUAAAAGUGGAGGGGGCGG | 0.0748 |
| AACACUGGCAAUGCCGGUCCCAAGCCCGGAUAAAAGUGGAGGAGGCGG | 0.137 |
| AACACUGCCAAUGGCAGUCCCAAGCCCGGAUAAAAGUGGAGGGGGCGG | 0.0993 |
| AACACUGCCAAUGCCGGUCCCAAGCCCGGAUAAAAGUGGGCGGGGCGG | 0.133 |
| AACACUGCCAAUGCCGGUCCCAAGCCAGGAUGAAAGUGGAGGGGGCGG | 0.483 |
| AAAACUGCCAAUGCCGGUCCCAAGCCCGGAUAAAAGUGGAGUGGGCGG | 0.0908 |
| AACACUCCCAAUGCCGGUCCAAAGCCCGGAUAAAAGUGGAGGGGGCGG | 0.0462 |
| AACACUGCCAUUGCCGGUCCCAAGCCCGGAUAAGAGUGGAGGGGGCGG | 1.07 |
| AACACUGACAAUGCCAGUCCCAAGCCCGGAUAAAAGUGGAGGGGGCGG | 0.153 |
| AACACAGCCAAUGCCGGUCCCAAGCCCGGAUAAAAGUGGAGAGGGCGG | 0.198 |
| AACACUGCCAAUGCCGGUCCCAAGCACGGCUAAAAGUGGAGGGGGCGG | 0.0881 |
| AGCACUGCCAAUGCCGGGCCCAAGCCCGGAUAAAAGUGGAGGGGGCGG | 0.0967 |
| AACACUCCCAAUGCCGGUCCCAAGCCCGGAUAAAAGUGGAGGGGGCUG | 0.0642 |
| AACACUGCCAAUGCCGGUCCCAAGCCCGGAUAAAAAUGUAGGGGGCGG | 0.12 |
| AAGACUGCCAAUGCCGGUCCCAAGCCCGGAUAAAAGUGCAGGGGGCGG | 0.0914 |
| AACACUGCGAAUGCCGGUCCCAAGCCCGAAUAAAAGUGGAGGGGGCGG | 0.596 |
| AACACUGCCAAUGUCGGUCCCAAGCCCGGAUAAAAGUGGAGGGGGCUG | 1 |
| AACACUGCCAAUGCCGGUCCCAAGCCCGGAUAAAAGAGGAGUGGGCGG | 0.153 |
| AACACUGCCAAUGCCGGUCCCAAACCCGGAUAAAUGUGGAGGGGGCGG | 0.113 |
| AACACUGCCAAUGCCGGUCCCAAGCCGGGAUAAAAGUGGAGAGGGCGG | 0.0529 |
| AACACUGCCAAUGCCGGUCCCAAGCCCGGAUAAAACUGGAGGGGGCAG | 0.183 |
| AACACUGCCAAUGCCGGUCCCAAUCCCGGAUAAAAGUGGAGGGAGCGG | 0.127 |
| AACAUCGCCAAUGCCGGUCCCAAGCCCGGAUAAAAGUGGAGGGGGCGG | 0.691 |
| AACACUGCCAAUGCCGGUCCCAAGCCCGGAUAAAAGUGGGGGGGGAGG | 0.164 |
| AACACUGCCAAUGCCGGUCCCAAUCCCGGAUAAGAGUGGAGGGGGCGG | 0.189 |
| AACAAUGCCAAUGCCGGUCCCAAGCCCGGAUAAAAGUGGAGGAGGCGG | 0.1 |

From the RNAGym collection of RNA variant scans (doi:10.7554/elife.80360)
